Molecular target: tumor necrosis factor alpha (TNFα) (rat) (UniProt P16599)
Assay: cell-based or functional assay

Sequence of UniProt P16599 (P16599 80-235 limits assumed): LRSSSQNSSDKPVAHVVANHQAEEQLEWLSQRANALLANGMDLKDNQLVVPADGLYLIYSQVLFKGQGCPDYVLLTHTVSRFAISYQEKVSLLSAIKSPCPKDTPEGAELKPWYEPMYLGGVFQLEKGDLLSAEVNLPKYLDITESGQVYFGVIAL

TNFRII:Fc receptor fragment (from UniProt P20333 23-257) (Fc fusion)
SPH release from hypoxic (5 hrs) adult rat cardiomyocytes after pretreatment with TNFRII:Fc (fold reduction): 3

From patent EP1731161A1
